Positions count from the first letter of the chain named. Names and notes keep the numbering of the source.
Assays:
[1] = molecular target: T1, human PD-1 expressed on cells (human, UniProt Q15116 25-288); assay: cell-based or functional assay
[2] = molecular target: T1, human PD-1 expressed on cells; assay: flow cytometry on CHO-K1 cells expressing human PD-1; anti-FLAG + PE goat anti-mouse
Description: (§1) Binding to cell-expressed human PD-1 was evaluated on human PD-1 over-expressing CHO cells. A Nanobody dilution series was prepared in assay buffer: PBS/10% FBS/0.05% sodium azide. 1×10⁵ cells/well were transferred to a 96-well V-bottom plate and resuspended in 100 μL Nanobody dilution. After 30 minutes incubation at 4° C., the cells were washed with 100 μL/well assay buffer and resuspended in 100 μL/well of 1 μg/ml anti-FLAG (Sigma, F1804) or anti-HIS (AbD Serotec, MCA 1396). […] Samples were incubated for 30 minutes at 4° C., washed, and resuspended in 100 μL/well of 5 nM TOPRO3 (LifeTechnologies, T3606) solution before analysis on FACS CANTO II (BD).

[3] = molecular target: T1, human PD-1 expressed on cells; assay: flow cytometry competition: blockade of human PD-L1-hFc binding to CHO-K1 cells expressing human PD-1; PE goat anti-human IgG
Description: (§2) Ligand competition assays were performed on human PD-1 over-expressing CHO cells. A Nanobody dilution series was prepared in assay buffer: PBS/10% FBS/0.05% sodium azide. […] 2×10⁴ cells/well were seeded in V-bottom 96-well plates and resuspended in 200 μL/well of the Nanobody/ligand dilution. After 90 minutes incubation at 4° C., the cells were washed with 100 μL/well assay buffer and resuspended in 100 μL/well PE-labeled Goat anti-human IgG (Southern Biotech, 2043-09). Samples were incubated for 30 minutes at 4° C., washed, and resuspended in 100 μL/well of 5 nM TOPRO3 (LifeTechnologies, T3606) solution before analysis on FACS CANTO II (BD).

[4] = molecular target: T1, human PD-1 expressed on cells; assay: flow cytometry competition: blockade of human PD-L2-hFc binding to CHO-K1 cells expressing human PD-1; PE goat anti-human IgG
Description: as §2

[5] = molecular target: T2, human LAG-3 expressed on cells (human, UniProt P18627 23-525); assay: flow cytometry on 3A9 cells expressing human LAG-3; anti-FLAG + PE goat anti-mouse
T2 construct: the transgene used on the cells is not tied to it by number; also called hLAG-3; 3A9.hLAG-3
T2 sequence: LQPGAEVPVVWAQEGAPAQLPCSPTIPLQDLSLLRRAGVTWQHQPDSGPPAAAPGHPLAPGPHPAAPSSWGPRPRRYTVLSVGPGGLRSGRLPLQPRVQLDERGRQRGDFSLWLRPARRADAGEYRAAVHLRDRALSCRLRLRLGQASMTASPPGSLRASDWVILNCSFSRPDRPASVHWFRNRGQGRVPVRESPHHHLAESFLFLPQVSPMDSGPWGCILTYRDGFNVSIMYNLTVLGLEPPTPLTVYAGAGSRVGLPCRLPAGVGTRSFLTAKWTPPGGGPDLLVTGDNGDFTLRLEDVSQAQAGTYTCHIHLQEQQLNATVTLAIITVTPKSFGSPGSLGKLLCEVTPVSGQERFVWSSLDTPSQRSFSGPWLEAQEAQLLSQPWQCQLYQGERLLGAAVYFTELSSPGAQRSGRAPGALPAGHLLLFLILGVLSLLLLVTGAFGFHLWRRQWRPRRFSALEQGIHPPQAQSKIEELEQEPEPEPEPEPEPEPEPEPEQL
Description: as §1, with “LAG-3” for “PD-1”, “3A9” for “CHO”, “F1804).” for “F1804) or anti-HIS (AbD Serotec, MCA 1396).”

human LAG-3-hFc [6] = molecular target: T3, human LAG-3-hFc (human, UniProt P18627 23-450); assay: SPR, Biacore T100; human LAG3-hFc captured on anti-human IgG(Fc), Nanobody as analyte; Langmuir with mass transport
T3 construct: also called human LAG3-Fc; Human LAG-3-Fc; not shown: human Fc
T3 sequence: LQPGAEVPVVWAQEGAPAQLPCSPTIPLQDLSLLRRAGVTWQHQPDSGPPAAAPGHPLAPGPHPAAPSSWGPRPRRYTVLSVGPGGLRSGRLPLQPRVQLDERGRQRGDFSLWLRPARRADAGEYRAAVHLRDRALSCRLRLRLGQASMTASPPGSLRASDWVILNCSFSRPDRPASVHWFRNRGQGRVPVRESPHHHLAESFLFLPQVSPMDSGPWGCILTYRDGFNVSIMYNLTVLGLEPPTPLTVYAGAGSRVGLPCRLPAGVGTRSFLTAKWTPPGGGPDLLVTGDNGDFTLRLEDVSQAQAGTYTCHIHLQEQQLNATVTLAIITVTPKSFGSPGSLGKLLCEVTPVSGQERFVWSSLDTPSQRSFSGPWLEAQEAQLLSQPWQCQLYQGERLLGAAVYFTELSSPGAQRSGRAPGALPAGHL
Description: Kinetic analysis of Nanobodies was performed by surface plasmon resonance (SPR) technology, using the Biacore T100 instrument (GE Healthcare). HBS-EP+(0.01 M HEPES pH 7.4, 0.15 M NaCl, 3 mM EDTA, 0.05% v/v Surfactant P20) was used as running buffer and the experiments were performed at 25° C. Two flow channels of a Series S Sensor Chip CM5 were activated with EDC (200 mM)/NHS (50 mM) and anti-Human IgG(Fc) (GE Healthcare, BR100839) was injected at 5 μg/ml in the supplied immobilization buffer (10 mM sodium acetate pH5.0) to render immobilization levels of approximately 2000 R U. After immobilization, surfaces were deactivated with 1M ethanolamine/HCl (pH 8.5). The flow rate during the sensor preparation was set on 5 μL/min.
Sensorgram processing and data analysis was performed with Biacore T100 Evaluation Software Version 2.0.4 (GE Healthcare). […] Processed curves were evaluated via fitting with the model ‘Langmuir with Mass Transport’.

human LAG-3-hFc [7] = molecular target: T3, human LAG-3-hFc; assay: flow cytometry competition: blockade of 40 nM human LAG-3-hFc binding to MHC class II on Daudi cells; PE goat anti-human IgG
Description: A Nanobody dilution series was prepared in assay buffer: HBSS/2% FBS. Prior to the experiment, Fc receptors on the Daudi cells were blocked with human Fc block (BD Pharmingen, 564220) and 5 μg/mL goat IgG (Jackson ImmunoResearch, 005-000-003) for 30 minutes at 4° C. […] 1×10⁵ cells/well were seeded in V-bottom 96-well plates and resuspended in 100 μL/well of the Nanobody/ligand dilution. After 30 minutes incubation at 4° C., the cells were washed and resuspended in 100 μL/well PE-labeled Goat anti-human IgG (Southern Biotech, 2043-09). Samples were incubated for 15 minutes at 4° C., washed, and resuspended in 100 μL/well of 5 nM TOPRO3 (LifeTechnologies, T3606) solution before analysis on FACS CANTO II (BD).

human PD-1-hFc [8] = molecular target: T4, human PD-1-hFc (human, UniProt Q15116 25-170); assay: SPR, Biacore T100; hPD-1-hFc immobilised on CM5, Nanobody as analyte; Langmuir with mass transport
T4 construct: also called hPD-1-hFc; hPD1-hFc; not shown: human Fc
Description: (§3) Kinetic analysis of the Nanobodies was performed by SPR technology, using the Biacore T100 instrument (GE Healthcare). HBS-EP+(0.01 M HEPES pH 7.4, 0.15 M NaCl, 3 mM EDTA, 0.05% v/v Surfactant P20) was used as running buffer and the experiments were performed at 25° C. Two flow channels of a Series S Sensor Chip CM5 were activated with EDC (200 mM)/NHS (50 mM). hPD-1-hFc was injected (4 times) at 5 μg/ml in suitable immobilization buffer (10 mM sodium acetate pH4.5) over one surface to render immobilization levels of 303 RU. After immobilization, surfaces were deactivated with 1M ethanolamine/HCl (pH 8.5). The flow rate during the sensor preparation was set on 5 μl/min.
(§4) After each cycle (i.e. before a new Nanobody injection step) the hPD1-hFc surfaces were regenerated with a 1 minute injection 10 mM Glycine pH1.5 at 45 μl/min. Sensorgram processing and data analysis was performed with Biacore T100 Evaluation Software Version 2.0.4 (GE Healthcare). Sensorgrams showing Nanobody binding were obtained after double referencing by subtracting 1) non-specific binding to reference flow channel and 2) HBS-EP+injection. Processed curves were evaluated via fitting with the model ‘Langmuir with Mass Transport’.

human PD-1-hFc [9] = molecular target: T4, human PD-1-hFc; assay: SPR, Biacore T100; hPD-1-hFc immobilised on CM5 (303 RU), Nanobody as analyte; Langmuir with mass transport
Description: as §3, §4

T1 sequence (Q15116 25-288 limits assumed): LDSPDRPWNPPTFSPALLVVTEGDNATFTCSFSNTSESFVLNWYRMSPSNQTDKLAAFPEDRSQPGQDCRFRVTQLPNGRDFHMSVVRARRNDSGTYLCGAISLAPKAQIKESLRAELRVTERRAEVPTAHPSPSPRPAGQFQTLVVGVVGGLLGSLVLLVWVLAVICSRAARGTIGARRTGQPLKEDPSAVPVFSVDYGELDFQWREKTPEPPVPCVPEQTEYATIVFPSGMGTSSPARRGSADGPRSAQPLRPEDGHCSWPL
T4 sequence (Q15116 25-170 limits assumed): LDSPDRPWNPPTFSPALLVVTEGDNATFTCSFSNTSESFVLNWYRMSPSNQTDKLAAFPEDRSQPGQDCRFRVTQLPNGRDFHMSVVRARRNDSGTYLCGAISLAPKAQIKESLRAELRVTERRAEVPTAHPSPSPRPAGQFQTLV

B1: F023700706 (1PD102C12 (L11V, A14P, A74S, K83R, I89L)-FLAG3-HIS6) (VHH)
VHH: EVQLVESGGGVVQPGGSLRLSCAASGSIASIHAMGWFRQAPGKEREFVAVITWSGGITYYADSVKGRFTISRDNSKNTVYLQMNSLRPEDTALYYCAGDKHQSSWYDYWGQGTLVTVSS
notes: also called SO 1PD102C12 monomer
What does the source list for B1?
EC50 (read off the curve), IL-2 promoter luciferase RLU [1]: ~0.9 nM; EC50 (read off the curve) [2]: ~0.9 nM; IC50 (read off the curve) [3]: ~0.6 nM; IC50 (read off the curve) [4]: ~0.6 nM

B2: F023700275 (1PD102C12(A14P, A74S, K83R)-FLAG3-HIS6) (VHH)
VHH: B1 VHH with V11L, L93I
notes: monovalent anti-human PD-1 Nanobody, parent of F023700706
B2 was tested. Which “EC50 (read off the curve)” value [2] did it give?
Its value is roughly 0.9 nM.

What about the “IC50 (read off the curve)” value [3] of the same binder?
Its value is roughly 0.3 nM.

What about the “IC50 (read off the curve)” value [4] of the same binder?
The value was roughly 0.3 nM.

B3: F023700842 (F0237611B09(L11V, A14P, R41P, N43K, A62S, A74S, K83R, V89L)-FLAG3-HIS6) (VHH)
VHH: EVQLVESGGGVVQPGGSLRLSCAASGRTFSDYVMGWFRQAPGKEREFVAAISESGGRTHYADSVKGRFTISRDNSKNTLYLQMNSLRPEDTALYYCATTLLWWTSEYAPIKANDYDYWGQGTLVTVSS
notes: also called F023700842-FLAG3-HIS6
With B3 as the binder, how does the “EC50 (read off the curve)” value [5] read?
The value was roughly 2 nM.

And the Kd (human LAG-3-hFc [6])?
Its Kd is 21 nM.

What about the koff (human LAG-3-hFc [6]) of the same binder?
Its koff is 0.019 s⁻¹.

What about the kon (human LAG-3-hFc [6]) of the same binder?
The kon was 920000 M⁻¹ s⁻¹.

What about the “IC50 (read off the curve)” value (human LAG-3-hFc [7]) of the same binder?
Its value is roughly 30 nM.

B4: F0237611B09-FLAG3-HIS6 (VHH)
VHH: B3 VHH with V11L, P14A, P41R, K43N, S63A, S75A, R87K, L93V
notes: original monovalent anti-human LAG-3 Nanobody; also called F0237611B09-FLAG-His6
What does the source list for B4?
EC50 (read off the curve) [5]: ~2 nM; IC50 (read off the curve) (human LAG-3-hFc [7]): ~20 nM

B5: F023701192 (1PD102C12 (E1D, L11V, A14P, W52aV, N73Q, A74S, K83R, I89L, W100aF)-HIS6) (VHH)
VHH: B1 VHH with E1D, W53V, N74Q, W105F
notes: monovalent anti-human PD-1 Nanobody variant; not shown: C-terminal HIS6 tag
Which results are given for B5?
Kd (human PD-1-hFc [8]): 1.3 nM; koff (human PD-1-hFc [8]): 0.0032 s⁻¹; kon (human PD-1-hFc [8]): 2.5e+06 M⁻¹ s⁻¹; Kd (human PD-1-hFc [9]): 1.3 nM; koff (human PD-1-hFc [9]): 0.0032 s⁻¹; kon (human PD-1-hFc [9]): 2.5e+06 M⁻¹ s⁻¹; IC50 (read off the curve) [3]: ~1 nM; IC50 (read off the curve) [4]: ~0.9 nM

B6: F023700929 (1PD102C12 (L11V, A14P, A74S, K83R, I89L)-HIS6) (VHH)
VHH: B1 VHH
notes: not shown: C-terminal HIS6 tag
What does the source list for B6?
Kd (human PD-1-hFc [8]): 0.29 nM; koff (human PD-1-hFc [8]): 0.00059 s⁻¹; kon (human PD-1-hFc [8]): 2e+06 M⁻¹ s⁻¹; Kd (human PD-1-hFc [9]): 0.29 nM; koff (human PD-1-hFc [9]): 0.00059 s⁻¹; kon (human PD-1-hFc [9]): 2e+06 M⁻¹ s⁻¹; IC50 (read off the curve) [3]: ~1 nM; IC50 (read off the curve) [4]: ~1 nM

B7: F023701193 (1PD102C12 (E1D, L11V, A14P, W52aV, N73P, A74S, K83R, I89L, W100aF)-HIS6) (VHH)
VHH: B1 VHH with E1D, W53V, N74P, W105F
notes: as for B5
What does the source list for B7?
Kd (human PD-1-hFc [8]): 2.4 nM; koff (human PD-1-hFc [8]): 0.0075 s⁻¹; kon (human PD-1-hFc [8]): 3.2e+06 M⁻¹ s⁻¹; Kd (human PD-1-hFc [9]): 2.4 nM; koff (human PD-1-hFc [9]): 0.0075 s⁻¹; kon (human PD-1-hFc [9]): 3.2e+06 M⁻¹ s⁻¹; IC50 (read off the curve) [3]: ~1 nM; IC50 (read off the curve) [4]: ~0.9 nM

B8: F023701190 (1PD102C12 (E1D, L11V, A14P, W52aV, A74S, K83R, I89L, W100aF)-HIS6) (VHH)
VHH: B1 VHH with E1D, W53V, W105F
notes: monovalent anti-human PD-1 Nanobody variant; also called Enhanced SO 1PD102C12 monomer; not shown: C-terminal HIS6 tag
With B8 as the binder, how does the “IC50 (read off the curve)” value [3] read?
Its value is roughly 1 nM.

And the “IC50 (read off the curve)” value [4]?
The value was roughly 0.9 nM.
